# T1: human FAP (Homo sapiens, UniProt Q12884)
# T1 sequence (Q12884 1-760): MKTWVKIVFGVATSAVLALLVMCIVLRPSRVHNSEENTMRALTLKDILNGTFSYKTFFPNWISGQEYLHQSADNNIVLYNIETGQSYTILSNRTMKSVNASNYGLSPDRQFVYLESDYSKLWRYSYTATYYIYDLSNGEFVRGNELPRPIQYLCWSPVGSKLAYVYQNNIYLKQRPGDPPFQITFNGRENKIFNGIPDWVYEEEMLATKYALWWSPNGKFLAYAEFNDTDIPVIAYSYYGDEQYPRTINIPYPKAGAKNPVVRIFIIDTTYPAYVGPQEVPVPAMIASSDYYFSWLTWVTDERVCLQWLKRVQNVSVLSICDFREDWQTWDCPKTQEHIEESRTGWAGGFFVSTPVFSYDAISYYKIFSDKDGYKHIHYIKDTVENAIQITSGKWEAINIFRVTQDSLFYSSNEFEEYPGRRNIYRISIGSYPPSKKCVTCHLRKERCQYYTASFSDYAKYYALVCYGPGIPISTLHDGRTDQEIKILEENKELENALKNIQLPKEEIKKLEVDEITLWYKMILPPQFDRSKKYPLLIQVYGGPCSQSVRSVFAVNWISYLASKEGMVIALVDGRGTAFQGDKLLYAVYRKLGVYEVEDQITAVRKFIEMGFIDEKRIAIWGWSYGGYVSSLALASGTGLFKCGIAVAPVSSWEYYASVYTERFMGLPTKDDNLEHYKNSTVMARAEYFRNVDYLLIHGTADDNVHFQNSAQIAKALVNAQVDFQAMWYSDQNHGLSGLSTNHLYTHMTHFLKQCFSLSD
# How the values were obtained:
# [1] = biological target: T1, human FAP; experiment: BLI (Octet) binding kinetics pre- and post-TCO conjugation (Example 7, Table 17)
# Experimental: Five VHHs binding the target (human FAP) with different dissociation rate constants were conjugated to TCO-NHS. Using the BLI technology on Octet system the binding kinetics towards human FAP were determined for each of the five VHHs pre- and post-TCO conjugation.
# [2] = biological target: T1, human FAP; experiment: BLI click reaction with Tz-R3B23 on TCO-VHHs bound to target, span (Example 7, Table 18); details: for Span: signal difference vs assay buffer
# Experimental: Next, Octet Streptavidin (SA) Biosensors were coated with 5 μg/mL biotinylated human FAP in assay buffer (HBS+0.5% BSA+0.1% Tween20) for 5 minutes. The sensors were then dipped in wells containing a 5 nM solution of the different VHHs (both TCO conjugated and unconjugated as control) for 20 minutes (association step) and further transferred to the assay buffer (dissociation step) for 30 minutes. After the dissociation phase, that simulates the lag time, the sensors were transferred to either a well containing 50 nM of a tetrazine-coupled, non-FAP binding R3B23 (Tz-R3B23) or to a well containing assay buffer as a control. This reaction was allowed to proceed for 20 minutes (experiment 1) or 30 minutes (experiment 2) after which the sensors were washed for 30 minutes in assay buffer. In the second experiment the TCO-VHHs were measured in duplicate (referred to as assay 1 and 2 of ‘experiment 2’ in the table below). Using the epitope binning function of ‘Octet Analysis Software’ we then determined the difference in signal between the VHHs incubated with Tz-R3B23 and the VHHs incubated with assay buffer. […] The span of unconjugated VHHs was considered as noise.
# [3] = Experiment 1, click reaction with 50 nM Tz-R3B23 for 20 minutes
# [4] = Experiment 2, 1st assay, click reaction with 50 nM Tz-R3B23 for 30 minutes
# [5] = Experiment 2, 2nd assay, click reaction with 50 nM Tz-R3B23 for 30 minutes
koff ([1]; Post conjugation (TCO)) [s⁻¹],kon ([1]; Post conjugation (TCO)) [M⁻¹ s⁻¹],koff ([1]; Pre conjugation (TCO)) [s⁻¹],kon ([1]; Pre conjugation (TCO)) [M⁻¹ s⁻¹],"Span [2, 3]","Span [2, 4]",span of unconjugated VHHs (noise) ([2]; both experiments),"Span [2, 5]",click reaction (span versus noise value) ([2]; experiment 1 (20 minutes Tz-R3B23)),"click reaction (span versus noise value) ([2]; experiment 2 (30 minutes Tz-R3B23), both assays)",Molecule
0.000559,833000,0.000679,1.01e+06,0.0096,0.0028,the highest,,,,"VHH8: VHH, target FAP, SEQ ID NO 91 (protein) VHH: QVQLQESGGGTVQPGGSLRLSCAASGISVSIASMAWYRQAPGKQRELVAGIISGGSTNYADSVKGRFTISRDNAKKVVLLQMNSLKPEDTAVYYCNTYPPFVGPGATATWGQGTQVTVSSAAAYPYDVPDYGSHHHHHH"
,,,,0.0224,0.0218,,0.0341,,,"TCO-VHH8 (conjugate, cyclised or stapled) VHH: QVQLQESGGGTVQPGGSLRLSCAASGISVSIASMAWYRQAPGKQRELVAGIISGGSTNYADSVKGRFTISRDNAKKVVLLQMNSLKPEDTAVYYCNTYPPFVGPGATATWGQGTQVTVSSAAAYPYDVPDYGSHHHHHH"
0.000157,1.07e+06,0.000188,3.41e+06,0.0021,0.0017,,,,,"VHH6: VHH, target FAP, SEQ ID NO 89 (protein) VHH: DVQLVESGGGLVQAGGSLRLSCAVSGSISSANSMGWYRQAPGKQRDVVAGLTTGGRSHYADSVKGRFTISRDNAKNTVYLQMNSLKAEDTAVYYCNLWPPVQGYWGQGTQVTVSS"
,,,,0.0015,0.0091,,0.0113,no click reaction took place,just above the noise value,"TCO-VHH9: TCO conjugated VHH9 (FAP binding) (conjugate, cyclised or stapled) VHH: QVQLQESGGGLVQSGGSLRLSCVASGSISSINAMGWYRQAPGNKREWVAGITSGGSTNYADAVLGRFSIFRDNPKNTVYLQMNSLKPEDTAVYYCNTWPPSTFGSWGQGTQVTVSSAAAYPYDVPDYGSHHHHHH"
0.000123,746000,0.000197,2.4e+06,0.0082,0.0018,,,,,"VHH7: VHH, target FAP, SEQ ID NO 90 (protein) VHH: QVQLQESGGGLVQAGGSLRLSCTASGTFSGRNAMAWYRQAPGKRRELVAGIRSDDSTNYVDSVKGRFTISRDNAKNTVYLQMNSLRPEDTAVYYCNLWPPVIGAGFGSWGQGTQVTVSSAAAYPYDVPDYGSHHHHHH"
,,,,0.0145,0.0186,,0.0230,,,"TCO-VHH7 (conjugate, cyclised or stapled) VHH: QVQLQESGGGLVQAGGSLRLSCTASGTFSGRNAMAWYRQAPGKRRELVAGIRSDDSTNYVDSVKGRFTISRDNAKNTVYLQMNSLRPEDTAVYYCNLWPPVIGAGFGSWGQGTQVTVSSAAAYPYDVPDYGSHHHHHH"
4.99e-05,694000,8.52e-05,1.77e+06,0.0089,0.0004,,,,,"VHH1: VHH, target FAP, SEQ ID NO 4 (protein, VHH1) VHH: DVQLVESGGGLVQPGGSLRLSCVASGRLSSSNSMAWYRQVPGKRRELVAGITGGGETNYADFVGGRFTISRDNAKNGLYLQLNGLKPEDTAAYYCNFWPPLINYWGQGTQVTVSS"
,,,,0.0237,0.0334,,0.0257,,,"TCO-VHH1: VHH1, functionalized with transcyclooctene (TCO) (conjugate, cyclised or stapled) VHH: DVQLVESGGGLVQPGGSLRLSCVASGRLSSSNSMAWYRQVPGKRRELVAGITGGGETNYADFVGGRFTISRDNAKNGLYLQLNGLKPEDTAAYYCNFWPPLINYWGQGTQVTVSS"
